Source: US20250144213A1 (UTC THERAPEUTICS SHANGHAI, published 2025)

T1: BCMA-Fc recombinant protein (human, UniProt Q02223 1-54)
T1 construct: Soluble staining reagent, 5 µg/ml; not shown: Fc part
T1 sequence (looked up): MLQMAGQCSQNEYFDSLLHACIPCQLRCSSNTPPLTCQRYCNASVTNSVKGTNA

T2: CD123-Fc recombinant protein (human, UniProt P26951 19-305)
T2 construct: Soluble staining reagent; also called CD123-Fc protein; not shown: Fc part
T2 sequence (looked up): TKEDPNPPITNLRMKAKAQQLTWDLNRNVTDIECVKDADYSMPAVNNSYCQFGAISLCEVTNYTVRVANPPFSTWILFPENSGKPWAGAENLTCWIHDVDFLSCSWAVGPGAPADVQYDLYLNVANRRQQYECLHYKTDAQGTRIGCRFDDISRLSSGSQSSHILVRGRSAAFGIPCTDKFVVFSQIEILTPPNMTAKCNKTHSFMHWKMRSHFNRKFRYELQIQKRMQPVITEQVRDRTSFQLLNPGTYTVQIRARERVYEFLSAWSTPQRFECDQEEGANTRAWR


target: T1, BCMA-Fc recombinant protein; test: flow cytometry: lentivirally transduced CAR-T cells stained with 5 µg/ml BCMA-Fc, detected with anti-human IgG Fc (FIG. 17B)

| binding result | Binder |
| --- | --- |
| binds | anti-BCMA scFv BCMA32 (scFv, also called BCMA32 scFv; BCMA32 CAR) scFv: QSALTQPASVSGSPGQSITISCTGTSSDVGGYNYVSWYQQHPGKAPKLMIYDVSKRPSGVSNRFSGSKSGNTASLTISGLQAEDEADYYCSSYTSSSTVVFGGGTKLTVLGGGGSGGGGSGGGGSQVQLQESGAEVKKPGSSVKVSCKASGGTFSRYAISWVRQAPGQGLEWMGGIIPFFGTSDYAQKFQGRVTITADESTSTAYMDLSRLRSEDTAVYYCAVRVATTGTGFYYAMDVWGQGTTVTVSS |
| binds | anti-BCMA scFv BCMA23 (scFv, also called BCMA23 scFv; BCMA23 CAR) scFv: QSALTQPPSASGTPGQRVTISCSGSSPNIGGNSVNWYQQLPGTAPKLLMYTNNQRPSGVPDRFSGSKSGTSASLAISGLQSEDEADYYCAAWDDSLNGVVFGGGTKLTVLGGGGSGGGGSGGGGSQVQLVQSGAEVKKPGESLKISCKGSGYSFTSYWIGWVRQMPGKGLEWMGIIYPGDSDTRYSPSFQGQVTISADKSISTAYLQWSSLKASDTAMYYCARRGGALDYWGQGTLVTVSS |
| binds | anti-BCMA scFv BCMA30 (scFv, also called BCMA30 scFv; BCMA30 CAR) scFv: DIQMTQSPSFLSASVGDRVTITCRASQGISSYLAWYQQKPGKAPKLLIYAASTLQSGVPSRFSGSGSGTEFTLTISSLQPEDFATYYCQQLNSYPPWTFGQGTKVEIKGGGGSGGGGSGGGGSQVQLVQSGAEVKKPGESLKISCKGSGYRFTSYWIGWVRQMPGKGLEWMGIIYPGDSDTRYSPPFQGQVTISADKSIDTAYLQWSSLKASDTAMYYCARLDASGSQRGGMDVWGQGTTVTVSS |
| binds | anti-BCMA scFv BCMA28 (scFv, also called BCMA28 scFv; BCMA28 CAR) scFv: QSALTQPPSVSEAPRQRVTISCSGSSSNIGQNAVNWYQKLPGKAPKLLIYYNDLVSSGVSDRFSGSKSGTSASLAISGLQSEDEADYYCATWDDSLNGVVFGGGTKVTVLGGGGSGGGGSGGGGSQVQLVQSGPGLVKPSQTLSLTCAISGDSVSSNSAAWNWIRQSPSRGLEWLGRTYYRSKWYNDYAVSVKSRITINPDTSKNQFSLQLNSVTPEDTAVYYCARDYYYGMDVWGQGTTVTVSS |
| binds | anti-BCMA scFv BCMA33 (scFv, also called BCMA33 scFv; BCMA33 CAR) scFv: QSALTQPPSASGSPGQSVTISCTGTSSDVGGYNYVSWYQQHPGKAPKLMIYEVSKRPSGVPDRFSGSKSGNTASLTVSGLQAEDEADYFCSSYAGSNNFVVFGGGTKLTVLGGGGSGGGGSGGGGSEVQLVESGGGLVQPGRSLRLSCAASGFTFDDYAMHWVRQAPGKGLEWVSGISWNSGSIGYADSVKGRFTISRDNAKNSLYLQMNSLRAEDTALYYCAKVGASAALGAFDIWGQGTMVTVSS |
| binds | anti-BCMA scFv BCMA22 (scFv, also called BCMA22 scFv; BCMA22 CAR) scFv: QSALTQPASVSGSPGQSITISCTGTSSDVGGYNYVSWYQQHPGKAPKLMIYEVTNRPSGVSNRFSGSKSGNTASLTISGLQAEDEAHYYCISYTSSSTLDYVFGTGTKVTVLGGGGSGGGGSGGGGSEVQLVESGPGLVKPSGTLSLTCAVSGGSISSSNWWSWVRQPPGKGLEWIGEIYHSGSTNYNPSLKSRVTISVDKSKNQFSLKLSSVTAADTAVYYCARVGSGYSYGYGDRVLDYWGQGTLVTVSS |
| binds | anti-BCMA scFv BCMA24 (scFv, also called BCMA24 scFv; BCMA24 CAR) scFv: QSVLTQPPSASGTPGQRVTISCSGSSSNIGSYSVNWYQQIPGTAPKLLIYSNNQRPSGVPDRFSGSKSGTSASLAISGLQSEDEADYSCAAWDDSLNGVVFGGGTKLTVLGGGGSGGGGSGGGGSQVQLVQSGAEVKKPGSSVKVSCKASGGTFSSYAISWVRQAPGQGLEWMGGIIPIFGTANYAQKFQGRVTITADESTSTAYMELSSLRSEDTAVYYCARGSFYSSVNVWGQGTTVTVSS |
| binds | anti-BCMA scFv BCMA27 (scFv, also called BCMA27 scFv; BCMA27 CAR) scFv: QSALTQPPSASGSPGQSVTISCTGSRSNVGSYNDVSWYQQHPGKAPKLIIYDVDKRPAGVPDRFSGSKSGNTASLTVSGLQAEDDADYYCSSYGGTYSLFVFGTGTELTVLGGGGSGGGGSGGGGSEVQLVESGGDLVQPGGSLRLSCAASGFTFSSYGMHWVRQAPGKGLEWVAVISYDGSNKYYADSVKGRFTISRDNSKNTLYLQMNSLRAEDTAVYYCAKEEFYGDSSYGMDVWGQGTTVTVSS |
| binds | anti-BCMA scFv BCMA34 (scFv, also called BCMA34 scFv; BCMA34 CAR) scFv: QPGLTQPPSVSKGLRQTATLTCTGNSNNVGNQGAAWLQQHQGHPPKLLSYRNNNRPSGISERFSASRSGNTASLTITGLQPEDEADYYCSAWDSSLSARVFGGGTKLTVLGGGGSGGGGSGGGGSQVQLVQSGAEVKKPGASVKVSCKTSGYTFSNPFVHWVRQAPGQGLEWVGIINLSGGDTLYAQKFQGGVTMTRDTSTNTAYMELTSLTFEDTAVYYCARDQAGFGDSAYWGQGTLVTVSS |
| binds | anti-BCMA scFv BCMA31 (scFv, also called BCMA31 scFv; BCMA31 CAR) scFv: QSALTQPPSASGSPGQSVTISCTGTSSDVGTYNYVSWYQQHPGKAPKLMIYDVNQRPSGVPDRFSGSKSGNTASLTVSGLQAEDEADYYCSSYGGSNNLVFGGGTKVTVLGGGGSGGGGSGGGGSEVQLVESGGGLIQPGGSLRLSCAASGFTFSSYWMSWVRQSPGKGLEWVANIKPDGSDKYYVDSVKGRFTISRDNAKNSLDLQMNSLRGEDTAIYYCARGATTYGSWGQGTLVTVSS |

target: T2, CD123-Fc recombinant protein; test: FACS staining of CAR-T cells with CD123-Fc recombinant protein (FIG. 28)

| binding result | Binder |
| --- | --- |
| binds | anti-CD123 scFv-C34 (scFv, also called C34 scFv) scFv: QSALTQPPSASGSPGQSVTISCTGTRSDVGAYNYVSWYQHHPGKAPKLMLYDVSKRPSGVSDRFSGSKSGNTASLTVSGLQSEDEANYYCSSYAGSGKYVFGSGTELTVLGGGGSGGGGSGGGGSEVHLVESGGGLVKPGGSLRLSCAASGFTFSDTWMSWVRQAPGKGLEWVGRIKSKTDGGTTNYAAPVKGRFTISRDDSKTTLFLQMNSLKTEDTAVYYCTGGDYPLFAYWGQGALVTVSS |
| binds | anti-CD123 scFv-C30 (scFv, also called C30 scFv) scFv: AIRLTQSPSSLSASVGDRVTITCQASQNINNYLNWYQQKSGKAPKLLIYDASNLEAGVPSRFSGSASGTDFTFTISSLQPEDIATYYCQQNDNLPLTFGQGTRLEIKGGGGSGGGGSGGGGSEVQLVESGGGVVRPGGSLRLSCAASGFTFGDYGMSWVRQAPGKGLEWVSGINWNGGSTGYADSVKGRFTISRDNAKNSLYLQMNSLRAEDTALYYCARDRAPDYGDYLQVGTTDYWGQGTLVTVSS |
| binds | anti-CD123 scFv-C32 (scFv, also called C32 scFv) scFv: QSVVTQPPSASGTPGQRVTISCSGSSSNIEGNTVSWYQQFPGAAPKLLIYSNSYRASGVPDRFSGSKSGTSASLAISELQSEDEADYYCSAWDDSLNGPVFGGGTKVTVLGGGGSGGGGSGGGGSEVQLVESGGGLVQPGGSLRLSCAASGFTFTSYAMNWVRQAPGKGLEWVSDISSSSSYIYYADSVKGRFTISRDNAKNSLYLQMNSLRAEDTAVYYCARDLYSGYDYGYYYGMDVWGQGTTVTVSS |
| binds | anti-CD123 scFv-C33 (scFv, also called C33 scFv) scFv: DIRLTQSPSSLSASVGDTITITCRASQDISSWIAWYQQKPGTAPRLLIYAASSLQSGVPSRFSGSGSGTDFTLTINSLHPEDFATYYCQQGSTFPLAFGGGTKVEIKGGGGSGGGGSGGGGSQVQLVQSGAEVKKPGSSVKVSCKASGGTFSSYAISWVRQAPGQGLEWMGGIIPIFGTANYAQKFQGRVTITADESTSTAYMELSSLRSEDTAVYYCARGLDNWNDVGWFDPWGQGTLVTVSS |
| binds | anti-CD123 scFv-C27 (scFv, also called C27 scFv) scFv: EIVLTQSPGTVSLSPGERATLSCRASQRVSATYLAWYQQKPGQAPRLLMYGGSRRATGIPDRFSGSGSGTDFTLTIRRLEPEDSAVYYCQQYGSSPLTFGGGTKLEIKGGGGSGGGGSGGGGSQVQLVQSGSELKKPGASVKVSCKASGYTFTSYGISWVRQAPGQGLEWMGWISAYNGNTNYAQKLQGRVTMTTDTSTSTAYMELRSLRSDDTAVYYCARDPYDDYGGNSRDEEDAFDIWGQGTTVTVSS |

target: T3, CD40-Fc recombinant protein (human, UniProt P25942 21-193); test: FACS staining of T cells expressing the anti-CD40 scFv-CD28 fusion with CD40-Fc protein (FIG. 64)
T3 construct: Soluble staining reagent; also called CD40-Fc protein; not shown: Fc part
T3 sequence (P25942 21-193 limits assumed): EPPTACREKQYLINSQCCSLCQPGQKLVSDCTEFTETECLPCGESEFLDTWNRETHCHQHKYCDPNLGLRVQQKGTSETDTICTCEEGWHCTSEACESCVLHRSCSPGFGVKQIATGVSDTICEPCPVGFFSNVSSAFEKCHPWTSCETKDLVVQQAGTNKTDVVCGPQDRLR

| binding result | Binder |
| --- | --- |
| binds | anti-CD40 scFv 40-47 (in LACOSTIM 40-47.28) (scFv, Tested on T cells as part of the LACOSTIM 40-47.28 (scFv fused with CD28), co-electroporated with the anti-Her2 CAR 4D5.BBZ; also called 40-47 scFv) scFv: QSALTQPASVSGSPGQSITISCTGTSSDVGAYNYVSWYQQLPGKTPKLMIYDVTNRPSGVSNRFSGSKSGNTASLTISGLQAEDEAYYYCGSYTTSSTLIFGGGTELTVLGGGGSGGGGSGGGGSEVHLVESGGGLVQPGGSLRLSCAASGFTFSSNWMSWVRQAPGKGLEWVANINQDGSEKYYVDSVKGRFTISRDNAKNSLYLQLNSLRAEDTAEYYCARGGYRYAYWGQGTLVTVSS |
| binds | anti-CD40 scFv 40-37 (in LACOSTIM 40-37.28) (scFv, Tested on T cells as part of the LACOSTIM 40-37.28 (scFv fused with CD28), co-electroporated with the anti-Her2 CAR 4D5.BBZ; also called 40-37 scFv) scFv: SYELTQPPSVSVSPGQTASITCSGDKLGNKYASWYQQKPGQSPVLVIFQDSRRPSGIPERFSGSNSGNTATLTISGTQAMDEADYYCQAWDSSTALFGGGTKLTVLGGGGSGGGGSGGGGSQVQLVQSGGGVVQPGRSLRLSCAASGFTFSSYAMHWVRQAPGKGLEWVAVISKDGSYENYVDSVKGRLAISRDNSKNTLFLQMDSLRPEDTALYFCARDYWYGMDVWGQGTTVTVSS |
| binds | anti-CD40 scFv 40-45 (in LACOSTIM 40-45.28) (scFv, Tested on T cells as part of the LACOSTIM 40-45.28 (scFv fused with CD28), co-electroporated with the anti-Her2 CAR 4D5.BBZ; also called 40-45 scFv) scFv: QSALTQPASVSGSPGQSITISCTGTSSDVGGYKYVSWYQQHPGKAPKLMIYDVSNRPSGVSNRFSGSKSGNTASLTISGLQAEDEADYYCSSYTSSSTPHVVFGGGTKVTVLGGGGSGGGGSGGGGSEVHLVESGGGVVQPGRSLRLSCAASGFPFSRYGMHWVRQAPGKGLEWVSYISSSGSTIYYADSVKGRFTISRDNSKNTVSLQMNSLRADDTAVYYCSRGTRPGITGRLGYWGQGTLVTVSS |
